± gives the uncertainty stated by the source.
Test: self-splicing fitness, log relative to wild type (ln ratio); higher = more splicing; Tetrahymena group I intron in knt gene, E. coli kanamycin selection, DiMSum; sequences stand for … in CUCUCU…GGAGGGAAAAGUUAUCAGGCAUGCACCUGGUAGCUAGUCUUUAAACCAAUAGAUUGCAUCGGUUUAAAAGGCAAGACCGUCAAAUUGCGGGAAAGGGGUCAACAGCCGUUCAGUACCAAGUCUCAGGGGAAACUUUGAGAUGGCCUUGCAAAGGGUAUGGUAAUAAGCUGACGGACAUGGUCCUAACCACGCAGCCAAGUCCUAAGUCAACAGAUCUUCUGUUGAUAUGGAUGCAGUUCACAGACUAAAUGUCGGUCGGGGAAGAUGUAUUCUUCUCAUAAGAUAUAGUCGGACCUCUCCUUAAUGGGAGCUAGCGGAUGAAGUGAUGCAACACUGGAGCCGCUGGGAACUAAUUUGUAUGCGAAAGUAUAUUGAUUAGUUUUGGAGUACUCGUGGUCG
Procedure, shortened: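 A randomised library covering all eight P1ex-region intron nucleotides was built with the intron in the knt kanamycin-resistance gene on pET-22b(+) and held in E. coli BL21(DE3). Cells were grown overnight at 37°C or 30°C on LB agar, with or without 25 μg/mL kanamycin, plus 100 μg/mL carbenicillin, 50 μM IPTG and 0.2% rhamnose, and pooled colonies were amplicon-sequenced on an Illumina HiSeq 2500. DiMSum fitness is the error-weighted combination of wild-type-normalised replicate fold changes, kanamycin versus none.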

Sequence | self-splicing fitness (ln) (30 °C) | self-splicing fitness (ln) (37 °C)
ACACAGCAAUAUUACGAUAG | -2.96 ± 0.074 | -1.62 ± 0.069
ACACAGCAAUAUUACGAUUA | -1.66 ± 0.087 | -0.929 ± 0.07
ACACAGCAAUAUUACGCAAU | -3.32 ± 0.15 | -1.94 ± 0.15
ACACAGCAAUAUUACGCAGA | -2.48 ± 0.16 | -1.75 ± 0.12
ACACAGCAAUAUUACGCCGU | -2.08 ± 0.13 | -1.13 ± 0.18
ACACAGCAAUAUUACGCCUC | -2.92 ± 0.18 | -1.73 ± 0.2
ACACAGCAAUAUUACGCGUA | -1.89 ± 0.078 | -1.2 ± 0.074
ACACAGCAAUAUUACGCGUC | -3.69 ± 0.11 | -3.32 ± 0.15
ACACAGCAAUAUUACGCUAA | -2.03 ± 0.1 | -1.19 ± 0.1
ACACAGCAAUAUUACGCUGG | -1.21 ± 0.063 | -1.33 ± 0.091
ACACAGCAAUAUUACGCUGU | -3.38 ± 0.14 | -3 ± 0.21
ACACAGCAAUAUUACGGCAA | -1.49 ± 0.077 | -0.943 ± 0.081
ACACAGCAAUAUUACGGCAG | -1.29 ± 0.067 | -0.371 ± 0.082
ACACAGCAAUAUUACGGCAU | -1.12 ± 0.049 | 0.227 ± 0.062
ACACAGCAAUAUUACGGCCC | -1.48 ± 0.13 | 0.924 ± 0.21
ACACAGCAAUAUUACGGCUU | -0.496 ± 0.04 | -0.0695 ± 0.057
ACACAGCAAUAUUACGGGUU | -2.86 ± 0.077 | -1.85 ± 0.082
ACACAGCAAUAUUACGGUAC | -4.03 ± 0.23 | -2.03 ± 0.14
ACACAGCAAUAUUACGGUGC | -3.91 ± 0.16 | -2.61 ± 0.14
ACACAGCAAUAUUACGGUUG | -1.37 ± 0.066 | -1.31 ± 0.11
ACACAGCAAUAUUACGUACU | -0.335 ± 0.05 | 0.175 ± 0.065
ACACAGCAAUAUUACGUCAU | -2.34 ± 0.072 | -2.33 ± 0.094
ACACAGCAAUAUUACGUCCG | -1.3 ± 0.079 | 0.213 ± 0.11
ACAGAGCAAUAUUACGAAUC | -2.92 ± 0.36 | 

Sequence | self-splicing fitness (ln) (30 °C) | self-splicing fitness (ln) (37 °C)
ACAGAGCAAUAUUACGAAUG | -3.82 ± 0.16 | -2.51 ± 0.19
ACAGAGCAAUAUUACGACUU | -2.44 ± 0.16 | -1.52 ± 0.15
ACAGAGCAAUAUUACGAGCU | -3.43 ± 0.18 | -2.22 ± 0.22
ACAGAGCAAUAUUACGCAAU | -3.59 ± 0.32 | -2.42 ± 0.32
ACAGAGCAAUAUUACGCACU | -3.25 ± 0.17 | -1.33 ± 0.14
ACAGAGCAAUAUUACGCAUU | -4.18 ± 0.27 | -2.99 ± 0.31
ACAGAGCAAUAUUACGCCAG | -2.37 ± 0.35 | -1.71 ± 0.49
ACAGAGCAAUAUUACGCCGC | -3.09 ± 0.48 | -1.07 ± 0.36
ACAGAGCAAUAUUACGCGUU |  | -1.16 ± 0.29
ACAGAGCAAUAUUACGGAGA | -3.21 ± 0.26 | -2.6 ± 0.29
ACAGAGCAAUAUUACGGCUG | -0.984 ± 0.096 | -0.796 ± 0.13
ACAGAGCAAUAUUACGGGAU | -3.52 ± 0.11 | -3.03 ± 0.15
ACAGAGCAAUAUUACGGUAA | -3.43 ± 0.25 | -2.26 ± 0.23
ACAGAGCAAUAUUACGUAGU | -1.7 ± 0.14 | -2.87 ± 0.21
ACAGAGCAAUAUUACGUAUG | -2.91 ± 0.17 | -3.39 ± 0.37
ACAGAGCAAUAUUACGUCAG | -3.02 ± 0.13 | -2.43 ± 0.2
ACAGAGCAAUAUUACGUGCU | -4.27 ± 0.37 | -2.48 ± 0.41
ACAGAGCAAUAUUACGUGGU | -3.82 ± 0.2 | -2.37 ± 0.21
ACAGAGCAAUAUUACGUUGG | -2.73 ± 0.16 | -3.57 ± 0.19
ACAGAGCAAUAUUACGUUUU | -3.47 ± 0.24 | -3.26 ± 0.32
ACAUAGCAAUAUUACGAAGA | -3.19 ± 0.18 | -2.72 ± 0.16
ACAUAGCAAUAUUACGACGG | -1 ± 0.091 | -0.32 ± 0.12
ACAUAGCAAUAUUACGAGGC | -4.03 ± 0.36 | -2.2 ± 0.32
ACAUAGCAAUAUUACGAUUU | -0.687 ± 0.062 | -0.157 ± 0.081

Sequence | self-splicing fitness (ln) (30 °C) | self-splicing fitness (ln) (37 °C)
ACAUAGCAAUAUUACGCAAA | -3.29 ± 0.16 | -2.25 ± 0.14
ACAUAGCAAUAUUACGCACA | -0.98 ± 0.099 | -0.0165 ± 0.12
ACAUAGCAAUAUUACGCACG | -2.07 ± 0.2 | -1.01 ± 0.15
ACAUAGCAAUAUUACGCACU | -0.38 ± 0.083 | 0.676 ± 0.1
ACAUAGCAAUAUUACGCCUU | -1.25 ± 0.083 | -0.057 ± 0.085
ACAUAGCAAUAUUACGCGCC | -0.408 ± 0.16 | 0.199 ± 0.26
ACAUAGCAAUAUUACGCUAU | -2.9 ± 0.13 | -2.38 ± 0.2
ACAUAGCAAUAUUACGCUGC | -2.01 ± 0.22 | -0.747 ± 0.15
ACAUAGCAAUAUUACGCUGG | -2.36 ± 0.11 | -1.46 ± 0.12
ACAUAGCAAUAUUACGGCAU | -1.06 ± 0.072 | -0.486 ± 0.079
ACAUAGCAAUAUUACGGCGG | -1.04 ± 0.049 | -0.52 ± 0.072
ACAUAGCAAUAUUACGGGAU | -1.88 ± 0.1 | -0.904 ± 0.12
ACAUAGCAAUAUUACGGGUA | -2.8 ± 0.19 | -2.35 ± 0.14
ACAUAGCAAUAUUACGGGUC | -3.93 ± 0.25 | -3.24 ± 0.28
ACAUAGCAAUAUUACGGUCC | -1.91 ± 0.087 | -1.77 ± 0.11
ACAUAGCAAUAUUACGUAAA | -1.66 ± 0.12 | -1.75 ± 0.21
ACAUAGCAAUAUUACGUACC | -0.809 ± 0.17 | 0.0877 ± 0.2
ACAUAGCAAUAUUACGUAGC | -2.78 ± 0.13 | -2.04 ± 0.19
ACAUAGCAAUAUUACGUAGG | -3.02 ± 0.13 | -1.84 ± 0.12
ACAUAGCAAUAUUACGUCUG | -1.24 ± 0.071 | -0.845 ± 0.09
ACCAAGCAAUAUUACGAAAU | -2.89 ± 0.12 | -2.08 ± 0.15
ACCAAGCAAUAUUACGAACU | -0.54 ± 0.061 | -0.819 ± 0.08
ACCAAGCAAUAUUACGACAA | -2.14 ± 0.15 | -1.11 ± 0.12
ACCAAGCAAUAUUACGACAU | -1.04 ± 0.011 | -0.296 ± 0.032

Sequence | self-splicing fitness (ln) (30 °C) | self-splicing fitness (ln) (37 °C)
ACCAAGCAAUAUUACGAGUC | -3.65 ± 0.2 | -1.25 ± 0.15
ACCAAGCAAUAUUACGAUUA | -2.23 ± 0.11 | -1.03 ± 0.085
ACCAAGCAAUAUUACGAUUU | -1.51 ± 0.041 | -1.26 ± 0.054
ACCAAGCAAUAUUACGCAUA | -1.77 ± 0.068 | -1.44 ± 0.073
ACCAAGCAAUAUUACGCCAC | -1.48 ± 0.31 | -2.12 ± 0.3
ACCAAGCAAUAUUACGCGCU | -0.723 ± 0.07 | 0.206 ± 0.089
ACCAAGCAAUAUUACGCUAA | -3.3 ± 0.16 | -2.33 ± 0.14
ACCAAGCAAUAUUACGCUCC | -1.35 ± 0.17 | -0.621 ± 0.25
ACCAAGCAAUAUUACGGAAA | -3.14 ± 0.18 | -1.9 ± 0.13
ACCAAGCAAUAUUACGGCUA | -0.574 ± 0.065 | -0.0302 ± 0.07
ACCAAGCAAUAUUACGGUAU | -3.45 ± 0.13 | -0.475 ± 0.094
ACCAAGCAAUAUUACGUGAC | -3.55 ± 0.13 | -1.99 ± 0.11
ACCAAGCAAUAUUACGUGCU | -1.7 ± 0.096 | -0.864 ± 0.096
ACCCAGCAAUAUUACGAAAC | -2.77 ± 0.12 | -1.04 ± 0.15
ACCCAGCAAUAUUACGAAAU | -1.42 ± 0.07 | -1.21 ± 0.083
ACCCAGCAAUAUUACGAAGA | -1.74 ± 0.12 | -1.36 ± 0.15
ACCCAGCAAUAUUACGAAGC | -0.907 ± 0.069 | -0.523 ± 0.072
ACCCAGCAAUAUUACGACGG | -1.39 ± 0.078 | -0.9 ± 0.086
ACCCAGCAAUAUUACGAGGG | -3.43 ± 0.15 | -2.47 ± 0.17
ACCCAGCAAUAUUACGCACU | -0.41 ± 0.064 | 0.0872 ± 0.077
ACCCAGCAAUAUUACGCAGU | -0.609 ± 0.055 | -0.106 ± 0.066
ACCCAGCAAUAUUACGCAUC | -1.33 ± 0.076 | 0.0782 ± 0.098
ACCCAGCAAUAUUACGCGUG | -3.53 ± 0.17 | -1.9 ± 0.13

Source: the supplement of paper PMC7877785
